Measurements taken from patent publication CN112646041A.

Biological target: 人CD64 ECD-his抗原(SINO BIOLOGICAL，货号:10256-H08H) (human) (UniProt P12314)
Test: ELISA, antibody coated at 67 to 0.0043 nM, CD64 ECD-his at 1 μg/mL

- EC50: 1.32 nM
Substance: hIgG1对照组(SIGMA，货号I4506) (antibody)
